# Assay results reported in the nanobody polyreactivity screen of Harvey et al. (2022).
# Experiment: yeast display, Sf9 membrane polyspecificity reagent, FACS + sequencing; frameworks hold sequencing errors
# Method in brief: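 After 36–48 hours of galactose induction, yeast (Saccharomyces cerevisiae BJ5465) displaying a synthetic nanobody library were stained at 4 °C for 1 hour with 10% biotinylated, detergent-solubilized Sf9 membrane reagent. Streptavidin microbeads enriched the stained cells before FACS sorting into low and high (top ~1%) gates on anti-HA and streptavidin fluorescence. Each clone's polyreactivity label reflects its gate of origin.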
row,Sequence,polyreactivity (PSR sort gate)
1,QVQLVESGGGLVQAGGSLRLSCAASGFILYYYAMGWYRQAPGKERELVAAISWSGDSTYYADSVKGRFTISRDNAKNTVYLQMNSLKPEDTAVYYCAATWQLTHRYYWGQGTQVTVSS,low polyreactivity
2,QVQLVESGGGLVQAGGSLRLSCAASGFIRTYAMGWYRQAPGKERELVAAITSSGGRTYYADSVKGRFTISRDNAKNTVYLQMNSLKPEDTAVYYCAAGLGRYLRYNYWGQGTQVTVSS,high polyreactivity
3,QVQLVESGGGLVQAGGSLRLSCAASGFISAYYAMGWYRQAPAKERELVAGINSNGGSTYYADSVKGRFTISRDNAKNTVYLQMNSLKPEDTAVYYCNKRYRHLYYKSVGSYDYWGQGTQVTVSS,high polyreactivity
4,QVQLVESGGGLVQAGGSLRLSCAASGFISDGNYMGWYRQAPGKERELVAAISSGATTHYADSVKGRFTISRDNAKNTVYLQMNSLKPEDTAVYYCNRGDDWRYDYWGQGTQVTVSS,low polyreactivity
5,QVQLVESGGGLVQAGGSLRLSCAASGFISHKYAMGWYRHAHGKERELVAAISWSGTSTHYADSVKGRFTISRDNAKKTVYIQMKSLKPEDTAVYYCAARRYPVLKYDYWGEGTQVTVSS,high polyreactivity
6,QVQLVESGGGLVQAGGSLRLSCAASGFISKYYAMGRYRQAPGKERELVASISRDGSTSYADSVKGRFTISRDNAKNTVYLQMNSLKPEDTAVYYCAAPSYRTRYYYWGQGTQVTVSS,high polyreactivity
7,QVQLVESGGGLVQAGGSLRLSCAASGFISKYYAMGWSRQAPGKERELVASISRDGSTSYADSVKGRFTISRDNAKNTVYLQMNSLKPEDTAVYYCAAPRRWGDKYSFGYWGQGTQVTVSS,high polyreactivity
8,QVQLVESGGGLVQAGGSLRLSCAASGFISKYYAMGWYRQAPGKERELVASISRDGSTSYADSVKGRFTISRDNAKNTVYLQMNSLKPEDTAVYYCAAPSYRTRYYYWGQGTQVTVSS,high polyreactivity
9,QVQLVESGGGLVQAGGSLRLSCAASGFISPPYAMGWYRQAPGKVMELVAAISSNGGRTSYADSVKGRFTISRDNAKNTVYLQMNSLKPEDTAVYYCNAVYSLYYTRYNYWGQGTQETVSS,high polyreactivity
10,QVQLVESGGGLVQAGGSLRLSCAASGFISPQNTMGWYRQAPGKERELVAAITSGGSTYYADSVKGRFTISRDNAKNTVYLQMNSLKPEDTAVYYCAARPYGTWTYGYWGQGTQVTVSS,low polyreactivity
11,QVQLVESGGGLVQAGGSLRLSCAASGFISRFNSMGWYRKAPGKERELVAAISWYGGITYYADSVKGRFTISRDNAKNTVYLQMNSLKPEDTAVYYCNAGDHIRKRYGISATWGYGYGYWGQGTQVTVSS,high polyreactivity
12,QVQLVESGGGLVQAGGSLRLSCAASGFISRNAMGWYRQAPGKQRELVAGITRGGSTNYADSVKGRFTISRDNAKNTVYLHMNSLKPEYTAVYYFATRRRLKGLAYDYWGQGNQVTVSS,high polyreactivity
13,QVQLVESGGGLVQAGGSLRLSCAASGFISSENAMGWYRQAPGKERELVAAISSGGSTNYADSVKGRFTISRDNAKNTVYLQMNSLKPEDTAVYYCAATLPGWYNEDDSWGQGTQVNVSS,low polyreactivity
14,QVQLVESGGGLVQAGGSLRLSCAASGFISVRNAMGWYRQAPGKERELVAAISSGDTTDYADSVKGRFTISRDNAKNTVYLQMISLKPEDTAVYYCAAVYYGRYYYWGQGTQVTVSS,low polyreactivity
15,QVQLVESGGGLVQAGGSLRLSCAASGFIVKYNAMAWYRQAPGKERELVAAISYRGTRTYYADSVKGRFTISRDNAKNTVYLQMNSLKPEDTAVYYCNAGLTYNHDPYDYWGQGTQVTVSS,high polyreactivity
16,QVQLVESGGGLVQAGGSLRLSCAASGFIYGANAMGWYRQAPGKERALVAAISWNGGRTYYADSVKGRFTISRDNAKKTVYLQMNSLKPEDTAVYYCNARSWYSFQPQDYWGQGTQVTVSW,high polyreactivity
17,QVQLVESGGGLVQAGGSLRLSCAASGFIYGSNAMGWYRQAPGKERELVAAISRSGGSTYYADSVKGRFTISRDNAKNTVYLQMNSLKPEDTAVYYCNVDLWTFVYSWWSYDYWGQGTQVTVSS,high polyreactivity
18,QVQLVESGGGLVQAGGSLRLSCAASGFIYRDYVMGWYRQAPEKERELVAAISYRGGSTNYADSVKGRFTISRDNAMNTVFLQMNSLKPEDTSVYYCAADQVHKREYEYWGQGTQVTVSS,low polyreactivity
19,QVQLVESGGGLVQAGGSLRLSCAASGFIYVYAMGWYRQPPRKERELVAAITATGDSTYYADSVKGRFTISRDNAKNTVYLQMNSLKPEDTAVYYCAAEWHYFVTMYYWGQGTQVTVSS,low polyreactivity
20,QVQLVESGGGLVQAGGSLRLSCAASGFIYYRYAMGWYRQAPGKERELVAAISRSGGSTYYADSVKGRFTISRDNAKNTVYLQMNSLNPEDTAVYYCAARDPGGAVGAAFDSWGQCTQVTVSS,low polyreactivity
21,QVQLVESGGGLVQAGGSLRLSCAASGFLFYYYAMGWYRQAPGKEREFVAAIRWNGGSTYYADSVKGRFTISRDNAKNTVYLQMNSLKPEDTAVYYCAAVWVQTTYADLYKYYYWGQGTQVTVSS,low polyreactivity
22,QVQLVESGGGLVQAGGSLRLSCAASGFMFDGYAMGWYRQAPGKERELVAAINFSGGSTYYADSVKGRFTISRDNAKNTVYLQMNSLKPEETAVYYCNADLEWNWVQFGYGYWGQGTQVTVSS,low polyreactivity

row,Sequence,polyreactivity (PSR sort gate)
1,QVQLVESGGGLVQAGGSLRLSCAASGFMFSSYAMGWYRQAPGKERELVAAISWSDSSTYYADSVKGRFTISRDNAKNTVYLQMNSLKPEDTADYYCAAVIGPDVYYLLYDYWGQGTQVTVSS,low polyreactivity
2,QVQLVESGGGLVQAGGSLRLSCAASGFNFDYYAMGWYRPAPGKVRELVAAITSRGGSTYYADSVKGRFTISRDNAKTTVYLQMNILKPEDTAVYYCSALRRSAEYNYWGQGTQVTVSS,high polyreactivity
3,QVQLVESGGGLVQAGGSLRLSCAASGFNFGGNAMGWYRQAPGKERELVAAISGSGGSTYYADSVKGRFTISRDNAKNTVYLQMNSLKPEDTAVYYCAVKFPPRKSYGYYYWGQGTQVTVSS,high polyreactivity
4,QVQLVESGGGLVQAGGSLRLSCAASGFNFRGYAMGWYRQAPGKERELVAAINSGDSTNYADSVKGRFTISRDNAKNTVYLQMNSLKPEDTAVYYCAASIYAALNGGPGYDYWGQGTQVTVSS,low polyreactivity
5,QVQLVESGGGLVQAGGSLRLSCAASGFNFRYNTMGWYRKAPRKERELVAAISVSGARTYYADSVKGRFTISRDNAKNTVYLQMNSLKPEDTAVFYCNRRYTFYSRYNNDYWGQGTQVTVSS,high polyreactivity
6,QVQLVESGGGLVQAGGSLRLSCAASGFNFSKYAMGWYRQAPGKERELVARINYNGGSTYYADSVKGRFTISRDNAKNTVYLQMNSLKPEDTAVYYCALVWRFSTRYYYWGQGTQVTVSS,high polyreactivity
7,QVQLVESGGGLVQAGGSLRLSCAASGFNFVHYAMGWYRPAPGKDRELVAAISKRGGTTYYADSVKGRFTISRDNAKNTVYLQMNSLKPEDSAVYYCNADVTNWEDDYYYWGQGTQVNVSS,high polyreactivity
8,QVQLVESGGGLVQAGGSLRLSCAASGFNFVSYAMGWYRKAPGKERELVAVIDNSDGDTYYADSVKGRFTISRDNAKNTVYLQMNSLKPEDTAVYYCARDVSARGYLPFDYWGQGTQVTVSS,low polyreactivity
9,QVQLVESGGGLVQAGGSLRLSCAASGFNFVYYAMGWYREAPGKERELVAVISWSGGSTNYADSVKGRFTISRDNAKNTVYLQMNSLKPEDTAVYYCAADAYAYTPYYGYRVDYWGQGTQVTVSS,high polyreactivity
10,QVQLVESGGGLVQAGGSLRLSCAASGFNFWRNAMGWYRQAPGKERELVAVITWSGGRTYYADSVKGRFTFSRDNAKNSVYLQMNSLKPEDSAVYYCSTEIVGPHFDYWGQGTQVTVSS,low polyreactivity
11,QVQLVESGGGLVQAGGSLRLSCAASGFNYYTMGWYRQAPGKERELVAAINYSGGRTYYADSVKGRFTISRDNAKNTVYLQMNSLKPEDTAVYYCNTARSPYDHRPERSYDYWGLGTQVTVSS,high polyreactivity
12,QVQLVESGGGLVQAGGSLRLSCAASGFSFARNAMGWYRQAPGKERELVAAISDSGGRTYYADSVKGRFTISRDIAKNTVYLQMNSLKPEDTAVYYCAAALTFRMDYWGQGTQVTVSS,high polyreactivity
13,QVQLVESGGGLVQAGGSLRLSCAASGFSFKRYAMGWYRQAPGKERELVADITRGGRTNYADSVKGRFTISRDNAKNTVYLQINSLKPEDTAVYYCNAVRQKYRFEYDYWGQGTQVTVSS,high polyreactivity
14,QVQLVESGGGLVQAGGSLRLSCAASGFSFKYYAMGWYRQAPGKERELVATIRRGGSTYADSVKGRFTISRDNAKNSVYLQMNSLKPDDTAVYYCATRISSSTVPLYYFSGYNYWGQGTQVTVSS,high polyreactivity
15,QVQLVESGGGLVQAGGSLRLSCAASGFSFRQYAMGWYRQAPGKERELVAAISRSGSRTYYADSVKGRFTLSRDNAKNTGYLQMNSLKAEDTAVYYCNAVFSTFTGEYYWGQGTQVTVSS,high polyreactivity
16,QVQLVESGGGLVQAGGSLRLSCAASGFSFSDYPMGWYRQAPGKERELVAAISGSGGSTYYADSVKGRFTISRDTAKNSVYLQMNSLKPEDTSVYYCNKGYARRYASGYDYWGQGTQVTVSS,high polyreactivity
17,QVQLVESGGGLVQAGGSLRLSCAASGFSIYRNSMGWYRPAPGKERELVAGISSGGSTNYADSVKGRFTISRDNAKNTVYLQMNSLKPEDTAVYYCATRVYALWFGRYDYWGQGTQVTVSS,high polyreactivity
18,QVQLVESGGGLVQAGGSLRLSCAASGFTAVGNAMGWYRPAPGKERELVASITNGGSTNYADSVKGRFTISRDNAKNTVYIQMNSLKPEDTAVYYCATDTYFDYTGALSHSGYYYWGQGTQVTVSS,low polyreactivity
19,QVQLVESGGGLVQAGGSLRLSCAASGFTCPSYNMRWYRQAPGKERELVAAISRSDGNTYYADSVKGRFTISRDNAKNTVYLQMNSLKPEDTEVYYCAAEYEAYAYEYWGQGTQVTVSS,high polyreactivity
20,QVQLVESGGGLVQAGGSLRLSCAASGFTCPYYMGWYRQAPGKERELVADISWSDGSTYYADSVKGRFTISRDNAKNTVSLQMNSLKPEDTAVYYCAADYVSSWFYLPEYDYWGQGTQVTVSS,high polyreactivity
21,QVQLVESGGGLVQAGGSLRLSCAASGFTFADNAMGGYREAPGKERQFVASITYSTGSTYADSVKGRFTISRDNAKNTVYLQMHSLTPEDTAVYYCAVDNISNWAVENDYWGQGTQVTVSS,low polyreactivity
